Experimental findings from US20230416371A1 (Chugai, published 2023) are described below.

The target of test [1] is T1, human FcγRIIIa V (allotype V158) extracellular domain (human, UniProt P08637 17-208).
T1 construct: extracellular domain; also called hFcγRIIIaV
The test can be described thus: SPR Biacore 8K+, 25 C, antibody captured, FcγR as analyte, 1:1 Langmuir model. The protocol:
(§1) The extracellular domains of FcγRs were produced by the method described in WO2014104165. The interaction between the produced antibodies and human FcγRs was analyzed using Biacore 8K+by the method below. For the running buffer, 50 mM Na-Phosphate, 150 mM NaCl, and 0.05% Tween20 (pH 7.4) was used, and measurement was performed at 25° C. The sensor chip used was a Series S SA chip (GE Healthcare) onto which CaptureSelect Human Fab-kappa Kinetics Biotin Conjugate (Thermo Fisher Scientific) was immobilized. An antibody of interest was captured onto this chip, and each FcγR diluted with the running buffer was allowed to interact with it. The chip was regenerated using 10 mM Glycine-HCl (pH 1.5), and repeatedly used to capture antibodies and perform measurement. The dissociation constants KD (mol/L) of each antibody for FcγRs were calculated using Biacore Insight Evaluation Software, with a steady state affinity model for the dissociation constant for FcγRIIb and a 1:1 Langmuir binding model for the dissociation constants for the other FcγRs (Table 2).
For orientation: In SPR one partner is held on a chip, and binding of the other changes the refractive index at the surface.

The target of test [2] is T2, human FcγRIIa H (allotype H131) extracellular domain (human, UniProt P12318 34-217).
T2 construct: extracellular domain; also called hFcγRIIaH
T2 sequence (looked up): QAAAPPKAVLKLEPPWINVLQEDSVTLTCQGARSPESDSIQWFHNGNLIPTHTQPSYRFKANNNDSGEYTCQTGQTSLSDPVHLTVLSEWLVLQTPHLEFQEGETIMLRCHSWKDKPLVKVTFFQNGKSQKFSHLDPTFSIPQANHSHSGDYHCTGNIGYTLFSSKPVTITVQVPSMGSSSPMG
Nature of the test: SPR Biacore 8K+; KD of G1d divided by KD of this antibody. The protocol: as §1

Test [3] concerns the target T3, human FcγRIIb extracellular domain (human, UniProt P31994 43-217).
T3 construct: extracellular domain; also called hFcγRIIb
T3 sequence (looked up): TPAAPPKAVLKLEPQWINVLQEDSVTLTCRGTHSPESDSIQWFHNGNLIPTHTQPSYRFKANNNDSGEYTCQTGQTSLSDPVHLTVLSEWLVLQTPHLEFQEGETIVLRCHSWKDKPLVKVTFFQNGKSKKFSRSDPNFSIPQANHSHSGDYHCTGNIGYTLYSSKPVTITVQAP
The description is as above. As to the method:
as §1

For test [4], the target named is hFcγRIIIaV on hFcγRIIIaV-expressing Jurkat cells (human, UniProt P08637 17-254). Nature of the test: cell-based or functional assay.
hFcγRIIIaV on hFcγRIIIaV-expressing Jurkat cells, sequence (P08637 17-254, form in doubt): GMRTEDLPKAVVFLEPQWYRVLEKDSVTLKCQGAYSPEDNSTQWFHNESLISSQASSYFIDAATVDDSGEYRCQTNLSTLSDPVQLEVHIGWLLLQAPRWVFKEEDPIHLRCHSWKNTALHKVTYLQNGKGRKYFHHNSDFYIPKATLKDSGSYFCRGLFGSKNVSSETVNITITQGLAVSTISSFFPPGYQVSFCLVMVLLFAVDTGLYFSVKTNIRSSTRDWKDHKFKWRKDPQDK
The target in test [5] is T3, human FcγRIIb extracellular domain. Nature of the test: SPR Biacore 8K+, 25 C, antibody captured, FcγR as analyte, steady state affinity model. The protocol:
as §1

For test [6], the target named is T1, human FcγRIIIa V (allotype V158) …. Nature of the test: SPR Biacore 8K+; KD for FcγRIIb divided by KD for this FcγR. As to the method: as §1
In test [7] the target is T4, human FcγRIIIa F (allotype F158) extracellular domain (human, UniProt P08637 17-208).
T4 construct: extracellular domain; also called hFcγRIIIaF
T4 sequence (P08637 17-208): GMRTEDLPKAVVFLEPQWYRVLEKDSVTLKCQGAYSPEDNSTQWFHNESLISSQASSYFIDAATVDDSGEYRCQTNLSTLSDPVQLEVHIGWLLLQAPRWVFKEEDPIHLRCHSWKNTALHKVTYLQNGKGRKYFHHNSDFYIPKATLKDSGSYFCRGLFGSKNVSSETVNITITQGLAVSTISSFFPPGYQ
The description is as above. The protocol: as §1

T1 sequence (P08637 17-208 F176V): as the sequence (P08637 17-208) above, with F160V counted along it

B1: EGL-afucosyl (H240-G1d/L73-k_glycomab) (antibody)
heavy: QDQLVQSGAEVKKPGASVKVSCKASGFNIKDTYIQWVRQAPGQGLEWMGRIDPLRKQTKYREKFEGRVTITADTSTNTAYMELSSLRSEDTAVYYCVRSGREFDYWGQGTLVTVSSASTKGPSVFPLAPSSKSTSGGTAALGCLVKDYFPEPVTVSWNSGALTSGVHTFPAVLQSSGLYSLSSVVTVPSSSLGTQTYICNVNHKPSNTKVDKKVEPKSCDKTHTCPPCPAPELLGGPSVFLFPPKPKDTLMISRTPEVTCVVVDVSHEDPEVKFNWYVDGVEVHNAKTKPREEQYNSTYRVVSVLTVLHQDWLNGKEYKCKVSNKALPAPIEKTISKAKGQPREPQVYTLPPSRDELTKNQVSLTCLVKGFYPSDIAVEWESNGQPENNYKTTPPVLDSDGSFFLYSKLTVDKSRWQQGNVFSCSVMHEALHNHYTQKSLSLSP
VL: DIQMTQSPSSLSASVGDRVTITCRASQDIHKYIAWYQQKPGQAPRLLIQYTSTLQPGVPSRFSGSGSGTDYTFTISSLQPEDIATYYCLQYEQLRTFGGGTKVEIK
modifications: afucosylated (fucose-deficient sugar chain) ; Afucosylated (fucose-deficient) N-glycan at Asn297 (EU) of the heavy chain; the letters cannot carry it.
notes: Same heavy chain as EGL-G1d, produced in cells that give fucose-deficient antibodies; also called afucosylated antibody
With B1, the Kd in test [1] amounted to 0.018 µM; in test [5], 5.85 µM. Besides, the “Relative value to KD between G1d and hFcγRs” value in test [2] stood at 1.1 times; in test [3] it was 1.8 times. In addition, in test [4], the “EC50 value of hFcγRIIIaV-mediated reporter gene induction activity” value is 5.16 ng/mL.

B2: EGL-ART6 (H240-Kn462/L73-k0//H240-HI445/L73-k0) (antibody, human IgG1, kappa)
heavy 1: QDQLVQSGAEVKKPGASVKVSCKASGFNIKDTYIQWVRQAPGQGLEWMGRIDPLRKQTKYREKFEGRVTITADTSTNTAYMELSSLRSEDTAVYYCVRSGREFDYWGQGTLVTVSSASTKGPSVFPLAPSSKSTSGGTAALGCLVKDYFPEPVTVSWNSGALTSGVHTFPAVLQSSGLYSLSSVVTVPSSSLGTQTYICNVNHKPSNTKVDKKVEPKSCDKTHTCPPCPAPEFQWGPMVFLFPPKPKDVLMISRTPEVTCVVVDVSDEEPEVKFNWYVDGVEVHNAKTKPREEQYNATYRVVSVLPVLHQDWLNGKEYKCKVSNDALPAPIEKTISKAKGQPREPQVCTLPPSRDELTKNQVSLWCLVKGFYPSDIAVEWESNGQPENNYKTTPPVLDSDGSFFLYSKLTVDKSRWQQGNVFSCSVMHEALHNHYTQKSLSLSP
heavy 2: QDQLVQSGAEVKKPGASVKVSCKASGFNIKDTYIQWVRQAPGQGLEWMGRIDPLRKQTKYREKFEGRVTITADTSTNTAYMELSSLRSEDTAVYYCVRSGREFDYWGQGTLVTVSSASTKGPSVFPLAPSSKSTSGGTAALGCLVKDYFPEPVTVSWNSGALTSGVHTFPAVLQSSGLYSLSSVVTVPSSSLGTQTYICNVNHKPSNTKVDKKVEPKSCDKTHTCPPCPAPELLAGPSVFLFPPKPKDVLMISRTPEVTCVVVDVSHEEPEVKFNWYVDGVEVHNAKTKPREEQYNATYRVVSVLPVLHQDWLNGKEYKCKVSNDALPKPDEETISKAKGQPREPQVYTLPPSRCELTKNQVSLSCAVKGFYPSDIAVEWESNGQPENNYKTTPPVLDSDGSFFLVSKLTVDKSRWQQGNVFSCSVMHEALHNHYTQKSLSLSP
light: DIQMTQSPSSLSASVGDRVTITCRASQDIHKYIAWYQQKPGQAPRLLIQYTSTLQPGVPSRFSGSGSGTDYTFTISSLQPEDIATYYCLQYEQLRTFGGGTKVEIKRTVAAPSVFIFPPSDEQLKSGTASVVCLLNNFYPREAKVQWKVDNALQSGNSQESVTEQDSKDSTYSLSSTLTLSKADYEKHKVYACEVTHQGLSSPVTKSFNRGEC
notes: Anti-human Epiregulin IgG1 with heterodimeric (knobs-into-holes) Fc variant
For the molecule B2, the “A/I ratio (KD for FcγRIIb divided by KD for each FcγR)” value amounted to 2030 in test [6] and 975 in test [7].

One may read the Kd as a measure of binding affinity in units of concentration. Low readings indicate a tighter complex, high ones a looser complex.
